# Experiment: soluble on expression in E. coli; label from the status in PepcDB or PDB records
row,Sequence,soluble on expression in E. coli
1,MSLTRATKGFLSKSLPKASEATPGSQSSDYIPLVSLQLASGAFLLNEAFCTTIQIPMEKLKWTSPFSCLRMSLVTRRQDLKTQSPQDCTSLSSSPPSCDGISLKSEESSDQESNAMLEHMGKLWATVVALAWLEHSSANYIIEWELVAAKASSWVEKQKVPEGRTLSTLKNTARQLFVLLRHWDEKLEFNMLCYNPNYVEGHHHHHH,not soluble
2,MSLTRKKYTYKMRSYINASHAIRWEAGIGSEHPHTWEIICEIVSSNDHMIKFEDIEEVITETISGLSGKFLNTIAPFDKINPTLENLTNYLFDMITDSLKKINCKLIRIEVGESPTRFYCISLDEGHHHHHH,soluble
3,MSLTRRNDAIAVVVTEPQNRLFVDPFFDRHLRGIRQELVRQGAQLVLLLIEEPDDYPRVGNFLGGGHVDGALLFSLRGDDPLPEMVDRMGLPAVFGGRPVLSPEDRGHRYTYVDADNRGGAREAVRHLVAQGRERIATITGPLNQAAAVDRLDGYRDVLPDSAPDLIVEGDFTLRGGVDAMAELLARCPDLDAVFAASDLMACGALRVLKEHGRRVPEDVAVIGFDDLPPLVETTEPSLTTVHQDIEGMGRLMARLLFERIPATPLDDGDHSLHRVITPTRLILRKTAEGHHHHHH,not soluble
4,MSLTTDWTTQVAAAAASVTAAEVDTARRALDYLCLAQLYLRDNVTLSTPLQPGHVKPAPAGHWGVCPPVNAVLAALGPYRRMPGTDVRVVHGGGHAGPSALAHAWITGALDTGEDAFGHTEVDLARLCAQFPRTRFGGEITPLIPGHDHLGGQLGPALAIAHGMGLDAPDRLVVAVIGDGECETGATAAAWLGARALIGTGTHGRVLPVILANGLRMGSASLLAALDPCDLARHLGGLGYEVITAGPSTDEITAAVARALTGLRPLQYGPSTVVVVTVDKGHGVPKTVAGQQIAQTPRVHKVPLRNPRDDNAEFVALERWLSGYRPQELFTGGAPTATVRRALAPAATGRVELHAPRGCIAAASAVADRVAGADFGAAITATLRELNTVYGLRVFSPDELASNRIELGAPDSGWTIEVLNEELCHAWAQGYQATGRRGVVVGYEAFAPITASLLAQQLLAHRLAAAAGRPPGPSLVYLLTSLGWHNTITHANPGLIDIAIGTADPSVHIYLPADATRTAAALTFAVRKLGRASLVVASKHPMPAHPHTTIDAELRDGYAVWPHIADDLDPEMVLVSIGDIAARELTRAATTITATRTATRLRYLHIHDLTSLGAPGRRDAAISAADFERLFPPGAAVLIATTCHPAAVHALLGERGAPRTVVVRGWANPPLPMSHDELLDHTGIAATALHEAALALLDSTTCDPLIRQGAREGHHHHHH,soluble
5,MSLTVMSIQDNLTINEKKVLLALEELRSAVPDKLEEKSGLQIDAAMQAAFMLQEKELASVSEKVLERYSLTKEGEEYKKTGLPERQIIDALKNPVSLEELRSCFSPQTVGIATGWLVKKGWAKVENGIMVPSGEASEGKDEKALSAFAGKAKTLEELGADEGTVKDLLKRKLVVKHEEKFRTVSITDAGSELASQGLVLEEEIAQLTPELLKSGAWKEKKFRPYRLDITPKPLYGTKIHPYRRLIEQMRQIFLEMGFTEIKGGIIQSSFWNFDALFQPQDHPARDMQDTFHLGSTCQIPAEYSGKVAAMHENGGDIDSCGWGGIWDRELAGRNVLRTHTTSVTIKYLADNPEPPVKAFCIDRAYRRETIDPTHTPEFEQLEGVVMDKDMSFADLLGLLAEFYHRMGFEEVRFRPGYFPYTEPSVEPEVYVDGLGWVELGGAGVFRKEVTEPLGIKAPVLAWGLGVSRLAMLKLGLKDLRLLYQSDIDWLRKSEVCKEGHHHHHH,soluble

# Source: the DeepSol protein solubility set
